US11325966

Experiments:
Test in all cases: cell-based or functional assay
[1] = target: HIV-1 Env of pseudovirus Ce1172_H1 (HIV-1)
[2] = target: HIV-1 Env of pseudovirus 1012_11_TC21_3257 (HIV-1)
[3] = target: HIV-1 Env of pseudovirus Ce1176_A3 (HIV-1)
[4] = target: HIV-1 Env of pseudovirus RHPA4259.7 (HIV-1)
[5] = target: HIV-1 Env of pseudovirus Q842.d12 (HIV-1)
[6] = target: HIV-1 Env of pseudovirus 1054_07_TC4_1499 (HIV-1)
[7] = target: HIV-1 Env of pseudovirus CNE53 (HIV-1)
[8] = target: HIV-1 Env of pseudovirus R1166.c01 (HIV-1)
[9] = target: HIV-1 Env of pseudovirus QH0692.42 (HIV-1)
[10] = target: HIV-1 Env of pseudovirus 9004SS_A3_4 (HIV-1)
[11] = target: HIV-1 Env of pseudovirus P0402_c2_11 (HIV-1)
[12] = target: HIV-1 Env of pseudovirus CNE30 (HIV-1)
[13] = target: HIV-1 Env of pseudovirus SC422661.8 (HIV-1)
[14] = target: HIV-1 Env of pseudovirus MS208.A1 (HIV-1)
[15] = target: HIV-1 Env of pseudovirus X2088_c9 (HIV-1)
[16] = target: HIV-1 Env of pseudovirus CNE19 (HIV-1)
[17] = target: HIV-1 Env of pseudovirus CNE58 (HIV-1)
[18] = target: HIV-1 Env of pseudovirus BJOX028000.10.3 (HIV-1)
[19] = target: HIV-1 Env of pseudovirus Q259.d2.17 (HIV-1)
[20] = target: HIV-1 Env of pseudovirus 263-8 (HIV-1)
[21] = target: HIV-1 Env of pseudovirus 928-28 (HIV-1)
[22] = target: HIV-1 Env of pseudovirus 1006_11_C3_1601 (HIV-1)
[23] = target: HIV-1 Env of pseudovirus X1632_S2_B10 (HIV-1)
[24] = target: HIV-1 Env of pseudovirus 6240_08_TA5_4622 (HIV-1)
[25] = target: HIV-1 Env of pseudovirus HIV-0013095-2.11 (HIV-1)
[26] = target: HIV-1 Env of pseudovirus BJOX009000.02.4 (HIV-1)
[27] = target: HIV-1 Env of pseudovirus BF1266.431a (HIV-1)
[28] = target: HIV-1 Env of pseudovirus T278-50 (HIV-1)
[29] = target: HIV-1 Env of pseudovirus 6535.3 (HIV-1)
[30] = target: HIV-1 Env of pseudovirus T251-18 (HIV-1)
[31] = target: HIV-1 Env of pseudovirus CNE5 (HIV-1)
[32] = target: HIV-1 Env of pseudovirus 3016.v5.c45 (HIV-1)
[33] = target: HIV-1 Env of pseudovirus Ce704809221_1B3 (HIV-1)
[34] = target: HIV-1 Env of pseudovirus 0815.v3.c3 (HIV-1)
[35] = target: HIV-1 Env of pseudovirus Du172.17 (HIV-1)
[36] = target: HIV-1 Env of pseudovirus Q23.17 (HIV-1)
[37] = target: HIV-1 Env of pseudovirus 89-F1_2_25 (HIV-1)
[38] = target: HIV-1 Env of pseudovirus R2184.c04 (HIV-1)
[39] = target: HIV-1 Env of pseudovirus 3365.v2.c2 (HIV-1)
[40] = target: HIV-1 Env of pseudovirus C1080.c03 (HIV-1)

PGT121 (antibody)
IC50 in TZM-bl assay [1]: 0.007 µg/mL | IC80 in TZM-bl assay [1]: 0.03 µg/mL | IC50 in TZM-bl assay [2]: 0.008 µg/mL | IC80 in TZM-bl assay [2]: 0.034 µg/mL | IC80 in TZM-bl assay [3]: 0.063 µg/mL | IC50 in TZM-bl assay [4]: 0.013 µg/mL | IC80 in TZM-bl assay [4]: 0.046 µg/mL | IC50 in TZM-bl assay [5]: 0.01 µg/mL | IC80 in TZM-bl assay [5]: 0.037 µg/mL | IC50 in TZM-bl assay [6]: 0.041 µg/mL | IC80 in TZM-bl assay [6]: 0.299 µg/mL | IC50 in TZM-bl assay [7]: 0.014 µg/mL | IC80 in TZM-bl assay [7]: 0.062 µg/mL | IC50 in TZM-bl assay [8]: > 10 µg/mL | IC80 in TZM-bl assay [8]: > 10 µg/mL | IC50 in TZM-bl assay [9]: 0.498 µg/mL | IC80 in TZM-bl assay [9]: 8.51 µg/mL | IC50 in TZM-bl assay [10]: 0.006 µg/mL | IC50 in TZM-bl assay [11]: 0.007 µg/mL | IC50 in TZM-bl assay [12]: 0.088 µg/mL | IC80 in TZM-bl assay [12]: 0.288 µg/mL | IC50 in TZM-bl assay [13]: 0.079 µg/mL | IC80 in TZM-bl assay [13]: 0.373 µg/mL | IC50 in TZM-bl assay [14]: > 10 µg/mL | IC80 in TZM-bl assay [14]: > 10 µg/mL | IC50 in TZM-bl assay [15]: 0.007 µg/mL | IC80 in TZM-bl assay [16]: 0.083 µg/mL | IC50 in TZM-bl assay [17]: > 10 µg/mL | IC80 in TZM-bl assay [17]: > 10 µg/mL | IC50 in TZM-bl assay [18]: > 10 µg/mL | IC80 in TZM-bl assay [18]: > 10 µg/mL | IC50 in TZM-bl assay [19]: 3.07 µg/mL | IC80 in TZM-bl assay [19]: > 10 µg/mL | IC50 in TZM-bl assay [20]: 0.647 µg/mL | IC80 in TZM-bl assay [20]: 4.68 µg/mL | IC50 in TZM-bl assay [21]: > 10 µg/mL | IC80 in TZM-bl assay [21]: > 10 µg/mL | IC50 in TZM-bl assay [22]: 0.002 µg/mL | IC80 in TZM-bl assay [22]: 0.008 µg/mL | IC50 in TZM-bl assay [23]: > 10 µg/mL | IC80 in TZM-bl assay [23]: > 10 µg/mL | IC50 in TZM-bl assay [24]: 0.068 µg/mL | IC80 in TZM-bl assay [24]: 0.231 µg/mL | IC50 in TZM-bl assay [25]: > 10 µg/mL | IC80 in TZM-bl assay [25]: > 10 µg/mL | IC50 in TZM-bl assay [26]: 9 µg/mL | IC80 in TZM-bl assay [26]: > 10 µg/mL | IC50 in TZM-bl assay [27]: > 10 µg/mL | IC80 in TZM-bl assay [27]: > 10 µg/mL | IC50 in TZM-bl assay [28]: > 10 µg/mL | IC80 in TZM-bl assay [28]: > 10 µg/mL | IC50 in TZM-bl assay [29]: 0.003 µg/mL | IC80 in TZM-bl assay [29]: 0.01 µg/mL | IC50 in TZM-bl assay [30]: 5.18 µg/mL | IC80 in TZM-bl assay [30]: > 10 µg/mL | IC50 in TZM-bl assay [31]: > 10 µg/mL | IC80 in TZM-bl assay [31]: > 10 µg/mL | IC50 in TZM-bl assay [32]: > 10 µg/mL | IC80 in TZM-bl assay [32]: > 10 µg/mL | IC50 in TZM-bl assay [33]: 0.043 µg/mL | IC80 in TZM-bl assay [33]: 0.285 µg/mL | IC50 in TZM-bl assay [34]: 0.017 µg/mL | IC80 in TZM-bl assay [34]: 0.085 µg/mL | IC50 in TZM-bl assay [35]: 0.062 µg/mL | IC80 in TZM-bl assay [35]: 0.531 µg/mL | IC50 in TZM-bl assay [36]: 0.005 µg/mL | IC80 in TZM-bl assay [36]: 0.017 µg/mL | IC50 in TZM-bl assay [37]: > 10 µg/mL | IC80 in TZM-bl assay [37]: > 10 µg/mL | IC50 in TZM-bl assay [38]: > 10 µg/mL | IC80 in TZM-bl assay [38]: > 10 µg/mL | IC50 in TZM-bl assay [39]: 0.243 µg/mL | IC80 in TZM-bl assay [39]: 2.13 µg/mL | IC50 in TZM-bl assay [40]: > 10 µg/mL | IC80 in TZM-bl assay [40]: > 10 µg/mL

354BG8 (antibody)
IC50 in TZM-bl assay [1]: 0.019 µg/mL | IC80 in TZM-bl assay [1]: 0.083 µg/mL | IC50 in TZM-bl assay [2]: 0.011 µg/mL | IC80 in TZM-bl assay [2]: 0.047 µg/mL | IC50 in TZM-bl assay [3]: 0.022 µg/mL | IC80 in TZM-bl assay [3]: 0.07 µg/mL | IC50 in TZM-bl assay [4]: 0.023 µg/mL | IC80 in TZM-bl assay [4]: 0.083 µg/mL | IC50 in TZM-bl assay [5]: > 10 µg/mL | IC80 in TZM-bl assay [5]: > 10 µg/mL | IC50 in TZM-bl assay [6]: 0.048 µg/mL | IC80 in TZM-bl assay [6]: 0.222 µg/mL | IC50 in TZM-bl assay [7]: 0.013 µg/mL | IC80 in TZM-bl assay [7]: 0.058 µg/mL | IC50 in TZM-bl assay [8]: > 10 µg/mL | IC80 in TZM-bl assay [8]: > 10 µg/mL | IC50 in TZM-bl assay [9]: 0.106 µg/mL | IC80 in TZM-bl assay [9]: 0.383 µg/mL | IC50 in TZM-bl assay [10]: 0.012 µg/mL | IC80 in TZM-bl assay [10]: 0.032 µg/mL | IC50 in TZM-bl assay [11]: 0.008 µg/mL | IC80 in TZM-bl assay [11]: 0.024 µg/mL | IC50 in TZM-bl assay [12]: 0.261 µg/mL | IC80 in TZM-bl assay [12]: 0.678 µg/mL | IC50 in TZM-bl assay [13]: 0.058 µg/mL | IC80 in TZM-bl assay [13]: 0.368 µg/mL | IC50 in TZM-bl assay [14]: > 10 µg/mL | IC80 in TZM-bl assay [14]: > 10 µg/mL | IC50 in TZM-bl assay [15]: 0.003 µg/mL | IC80 in TZM-bl assay [15]: 0.01 µg/mL | IC50 in TZM-bl assay [16]: 0.075 µg/mL | IC80 in TZM-bl assay [16]: > 10 µg/mL | IC50 in TZM-bl assay [17]: 0.165 µg/mL | IC80 in TZM-bl assay [17]: 0.476 µg/mL | IC50 in TZM-bl assay [18]: > 10 µg/mL | IC80 in TZM-bl assay [18]: > 10 µg/mL | IC50 in TZM-bl assay [19]: > 10 µg/mL | IC80 in TZM-bl assay [19]: > 10 µg/mL | IC50 in TZM-bl assay [20]: 0.416 µg/mL | IC80 in TZM-bl assay [20]: 5.71 µg/mL | IC50 in TZM-bl assay [21]: 0.616 µg/mL | IC80 in TZM-bl assay [21]: 2.4 µg/mL | IC50 in TZM-bl assay [22]: 0.002 µg/mL | IC80 in TZM-bl assay [22]: 0.006 µg/mL | IC50 in TZM-bl assay [23]: > 10 µg/mL | IC80 in TZM-bl assay [23]: > 10 µg/mL | IC50 in TZM-bl assay [24]: 0.038 µg/mL | IC80 in TZM-bl assay [24]: 0.131 µg/mL | IC50 in TZM-bl assay [25]: > 10 µg/mL | IC80 in TZM-bl assay [25]: > 10 µg/mL | IC50 in TZM-bl assay [26]: > 10 µg/mL | IC80 in TZM-bl assay [26]: > 10 µg/mL | IC50 in TZM-bl assay [27]: > 10 µg/mL | IC80 in TZM-bl assay [27]: > 10 µg/mL | IC50 in TZM-bl assay [28]: 1.71 µg/mL | IC80 in TZM-bl assay [28]: > 10 µg/mL | IC50 in TZM-bl assay [29]: 0.007 µg/mL | IC80 in TZM-bl assay [29]: 0.022 µg/mL | IC50 in TZM-bl assay [30]: 0.399 µg/mL | IC80 in TZM-bl assay [30]: 2.29 µg/mL | IC50 in TZM-bl assay [31]: > 10 µg/mL | IC80 in TZM-bl assay [31]: > 10 µg/mL | IC50 in TZM-bl assay [32]: > 10 µg/mL | IC80 in TZM-bl assay [32]: > 10 µg/mL | IC50 in TZM-bl assay [33]: 0.084 µg/mL | IC80 in TZM-bl assay [33]: 0.395 µg/mL | IC50 in TZM-bl assay [34]: 0.043 µg/mL | IC80 in TZM-bl assay [34]: 0.197 µg/mL | IC50 in TZM-bl assay [35]: 0.049 µg/mL | IC80 in TZM-bl assay [35]: 0.194 µg/mL | IC50 in TZM-bl assay [36]: 0.005 µg/mL | IC80 in TZM-bl assay [36]: 0.015 µg/mL | IC50 in TZM-bl assay [37]: > 10 µg/mL | IC80 in TZM-bl assay [37]: > 10 µg/mL | IC50 in TZM-bl assay [38]: > 10 µg/mL | IC80 in TZM-bl assay [38]: > 10 µg/mL | IC50 in TZM-bl assay [39]: 0.057 µg/mL | IC80 in TZM-bl assay [39]: 0.2 µg/mL | IC50 in TZM-bl assay [40]: > 10 µg/mL | IC80 in TZM-bl assay [40]: > 10 µg/mL
